Measurements from US20140256912A1, “Stabilized Variant MAML Peptides and Uses Thereof” (PRESIDENT AND FELLOWS OF HARVARD COLLEGE, priority 2011, published 2014).
One block for each molecule: values may come before it. Bridge positions count the residues as written; N and C are the ends. Square brackets hold non-standard residues; d marks the D form. Ends that are not written are not given here. dPhe(F5) = N[C@H](Cc1c(F)c(F)c(F)c(F)c1F)C(=O)O; 1Nal = N[C@@H](Cc1cccc2ccccc12)C(=O)O; 2Nal = N[C@@H](Cc1ccc2ccccc2c1)C(=O)O; S5 = C=CCCC[C@](C)(N)C(=O)O; I_N = not defined here; βAla = NCCC(=O)O

Assays:
[1] = molecular target: equimolar RAMANK1-CSL complex (human) (UniProt P46531); assay: SPR (Biacore 3000), peptide immobilised on a streptavidin chip, equimolar RAMANK1 and CSL injected; bio-sdnMAML1, residues 16-70
[2] = molecular target: GST-RAMANK1-CSL complex (human) (UniProt P46531); assay: ALPHAscreen, 40 nM of all partners
[3] = molecular target: GST-RAMANK1-CSL complex (human) (UniProt P46531); assay: ALPHAscreen titration matrix, binding components in the range of 10-100 nM
[4] = molecular target: equimolar RAMANK1-CSL complex (human) (UniProt P46531); assay: SPR, preformed RAMANK1-CSL complex
[5] = molecular target: equimolar RAMANK1-CSL complex (human) (UniProt P46531); assay: SPR (Biacore 3000), peptide immobilised on a streptavidin chip, equimolar RAMANK1 and CSL injected; bio-nt-sdnMAML1, residues 16-45
[6] = molecular target: GST-RAMANK1-CSL complex (human) (UniProt P46531); assay: ALPHAscreen competition against Bio-sdnMAML1 binding to GST-RAMANK1-CSL
[7] = molecular target: GST-RAMANK1-CSL complex (human) (UniProt P46531); assay: ALPHAscreen NTC competition: peptide titrated against Bio-sdnMAML1 binding to GST-RAMANK1-CSL; IC50 with 95% CI
[8] = molecular target: equimolar RAMANK1-CSL complex (human) (UniProt P46531); assay: SPR (Biacore 3000), peptide immobilised on a streptavidin chip, equimolar RAMANK1 and CSL injected; bio-SAHM1, stapled peptide
[9] = molecular target: NOTCH1-CSL transactivation complex in U2OS cells transfected with the truncated, constitutively activated ΔEGFΔLNR-NOTCH1 allele, P46531; assay: cell-based or functional assay

- Kd [1]: 40 nM
- signal-to-noise ratio [2]: 30 fold
- ALPHAscreen luminescent signal (maximum) [3]: 45000 c.p.s.
Molecule: synthetic, biotinylated dnMAML1 (Bio-sdnMAML1, residues 16-70) (from UniProt Q92585 16-70) (peptide)

- fold decrease in affinity against s-dnMAML1 [4]: 10 fold
- Kd [5]: 400 nM
Molecule: bio-nt-sdnMAML1 (residues 16-45), N-terminal helix of dnMAML1 (from UniProt Q92585 16-45) (peptide)

- IC50 (read off the curve) [6]: 100 nM
Molecule: unlabeled Ac-sdnMAML1 peptide (from UniProt Q92585 16-70)

- IC50 [7]: 1200 nM
B1: SAHM1-35 (peptide)
peptide: Ac-W[βAla]ERWRRRL[S5]LFR[S5]HHST[dPhe(F5)]EARY
modifications: staple 10-14

- IC50 [7]: 360 nM
B2: SAHM1-80 (peptide)
peptide: Ac-W[βAla]ERWRRRL[S5]YVR[S5]HHSTCEARYEAVSPERL
modifications: staple 10-14

- Kd [8]: 100 nM
B3: Bio-SAHM1 (biotinylated stapled MAML1 E21-T36 peptide) (peptide, UniProt Q92585 21-36, looked up)
peptide: ERLRRRI[S5]LCR[S5]HHST
modifications: staple 8-12; not fully specified (N-terminus); also: biotin label, linker not described

- IC50 [7]: 370 nM
B4: SAHM1-81 (peptide)
peptide: Ac-W[βAla]ERWRRRL[S5]WCR[S5]HHSTCEARYEAVSPERL
modifications: staple 10-14; cysteine pairing not given here

- IC50 [7]: 450 nM
B5: SAHM1-60 (peptide)
peptide: Ac-W[βAla]ERWRRRL[S5]YFR[S5]HHST[dPhe(F5)]EARY
modifications: staple 10-14

- IC50 [7]: 220 nM
B6: SAHM1-56 (E21-T36 scaffold with L23W, L29Y and C30F) (peptide)
peptide: Ac-W[βAla]ERWRRRI[S5]YFR[S5]HHST
modifications: staple 10-14

- IC50 [7]: 610 nM
B7: SAHM1-52 (peptide)
peptide: Ac-W[βAla]ERWRRRL[S5]LCR[S5]HHST[I_N]EARY
modifications: staple 10-14; reading uncertain

- IC50 [7]: 1700 nM
B8: AcW-SAHM1 (stapled MAML1 E21-T36 peptide with N-acetyl tryptophan cap) (peptide)
peptide: Ac-W[βAla]ERLRRRI[S5]LCR[S5]HHST
modifications: staple 10-14

- IC50 [7]: 560 nM
B9: SAHM1-28 (peptide)
peptide: Ac-W[βAla]ERLRRRI[S5]LCR[S5]HHSTFEARY
modifications: staple 10-14

- EC50, NOTCH1-driven CSL-luciferase dual reporter in U2OS cells [9]: 10000 nM
- fold lower IC50 than SAHM1, NOTCH1 reporter gene assay [9]: 2 fold
B10: SAHM1-25 (E21-Y41 scaffold, L23W/C30F double mutant), Q92585 21-41 (peptide)
peptide: Ac-W[βAla]ERWRRRI[S5]LFR[S5]HHSTCEARY
modifications: staple 10-14

- IC50 [7]: 1120 nM
B11: SAHM1-24 (stapled peptide of the E21-Y41 scaffold) (peptide)
peptide: Ac-W[βAla]ERLRRRI[S5]LCR[S5]HHSTCEARY
modifications: staple 10-14; cysteine pairing not given here

- IC50 [7]: 320 nM
B12: SAHM1-62 (E21-Y41 scaffold with L23W, L29Y, C30F, C37 D-pentafluoro-Phe and Y41 1-naphthylalanine) (peptide)
peptide: Ac-W[βAla]ERWRRRI[S5]YFR[S5]HHST[dPhe(F5)]EAR[1Nal]
modifications: staple 10-14

- IC50 [7]: 200 nM
B13: SAHM1-27 (E21-Y41 scaffold, L23W/L29W double mutant) (peptide)
peptide: Ac-W[βAla]ERWRRRI[S5]WCR[S5]HHSTCEARY
modifications: staple 10-14; cysteine pairing not given here

- IC50 [7]: 440 nM
B14: SAHM1-61 (peptide)
peptide: Ac-W[βAla]ERWRRRL[S5]YFR[S5]HHSTCEAR[1Nal]
modifications: staple 10-14

- IC50 [7]: 270 nM
B15: SAHM1-76 (peptide)
peptide: Ac-W[βAla]ERWRRRL[S5]YCR[S5]HHSTCEARYEAVSPERL
modifications: staple 10-14; cysteine pairing not given here

- IC50 [7]: 340 nM
B16: SAHM1-59 (peptide)
peptide: Ac-W[βAla]ERWRRRL[S5]YCR[S5]HHSTCEARY
modifications: staple 10-14; cysteine pairing not given here

- IC50 [7]: 360 nM
B17: SAHM1-51 (peptide)
peptide: Ac-W[βAla]ERWRRRL[S5]LCR[S5]HHSTCEAR[1Nal]
modifications: staple 10-14; cysteine pairing not given here

- IC50 [7]: 410 nM
B18: SAHM1-50 (peptide)
peptide: Ac-W[βAla]ERWRRRL[S5]LCR[S5]HHSTCEAR[2Nal]
modifications: staple 10-14; cysteine pairing not given here

- IC50 [7]: 780 nM
B19: SAHM1-43 (peptide)
peptide: Ac-W[βAla]ERWRRRL[S5]WCR[S5]HHST[dPhe(F5)]EARY
modifications: staple 10-14

- IC50 [7]: 250 nM
B20: SAHM1-55 (peptide)
peptide: Ac-W[βAla]ERWRRRI[S5]YCR[S5]HHST
modifications: staple 10-14

- IC50 [7]: 670 nM
B21: SAHM1-48 (peptide)
peptide: Ac-W[βAla]ERWRRRL[S5]YVR[S5]HHST
modifications: staple 10-14

- IC50 [7]: 6500 nM
B22: SAHM5 (peptide)
peptide: Ac-W[βAla]ELER[S5]HTF[S5]LHQR
modifications: staple 7-11

- IC50 [7]: 900 nM
B23: SAHM1-39 (peptide)
peptide: Ac-W[βAla]ERWRRRL[S5]WFR[S5]HHST
modifications: staple 10-14

- IC50 [7]: 3700 nM
B24: SAHM1-D1 (peptide)
peptide: Ac-W[βAla]RELRREI[S5]LCR[S5]HHST
modifications: staple 10-14

- IC50 [7]: 460 nM
B25: SAHM1-47 (peptide)
peptide: Ac-W[βAla]ERWRRRL[S5]YCR[S5]HHST
modifications: staple 10-14

- EC50, NOTCH1-driven CSL-luciferase dual reporter in U2OS cells [9]: 5000 nM
- fold lower IC50 than SAHM1, NOTCH1 reporter gene assay [9]: 4 fold
B26: SAHM1-62 (E21-Y41 scaffold with L23W, L29Y, C30F, C37 D-pentafluoro-Phe and Y41 1-naphthylalanine), Q92585 21-41 (peptide)
peptide: Ac-W[βAla]ERWRRRI[S5]YFR[S5]HHST[dPhe(F5)]EAR[1Nal]
modifications: staple 10-14

- IC50 [7]: 690 nM
B27: SAHM1-22 (peptide)
peptide: Ac-W[βAla]ERWRRRI[S5]FCR[S5]HHST
modifications: staple 10-14

- IC50 [7]: 290 nM
B28: SAHM1-25 (E21-Y41 scaffold, L23W/C30F double mutant) (peptide)
peptide: Ac-W[βAla]ERWRRRI[S5]LFR[S5]HHSTCEARY
modifications: staple 10-14

- IC50 [7]: 850 nM
B29: SAHM1-26 (peptide)
peptide: Ac-W[βAla]ERWRRRI[S5]FCR[S5]HHSTCEARY
modifications: staple 10-14; cysteine pairing not given here

- IC50 [7]: 540 nM
B30: SAHM1-38 (peptide)
peptide: Ac-W[βAla]ERWRRRL[S5]WVR[S5]HHST
modifications: staple 10-14
